Results from the supplement of paper PMC12764529.
± gives the half width of the 95% confidence interval.

experiment: folding stability dG unfold from chymotrypsin proteolysis; higher = more stable
Method: (§1)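 Folding stability of de novo designed mini-proteins (<80 aa, no Cys; designed by TrROS, TrMRF, ProteinMPNN and the joint model) was measured by cDNA display proteolysis with trypsin and chymotrypsin. Each protease was used at 11 concentrations in a threefold dilution series plus a no-protease condition. K50 was inferred by Bayesian fitting of sequencing counts, and dG unfold was derived against a sequence-predicted unfolded-state K50 (Tsuboyama et al. method). Sequences shown include variable-length N-terminal GS-type padding (SAGGSAGG...) inside a display construct carrying a PA tag. Rows were kept only if the AF2 dimer inter-PAE was >15, to exclude likely homo-oligomers.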

Sequence | folding stability dG unfold
SAGGSAMKVEKEGDKVTIIVNAPESLNDKKVLTEKIKKAIEENKNKEVEIIAPPKYKPYAEETIKNSAGGSA [r15_89_JUSTAS] | -0.217 ± 0.52 kcal/mol
SAPPATLTVDSVEFHPETGTLTIPFSHPAGPTASVLFRNEDGEVLEIPGTVPTATIRAEPNMRLERVFLGSA [r9_113_TrMRF] | 0.499 ± 0.1 kcal/mol
SAGGSAGGSAGGSEEKPIPIKVKIWKPNPGELVEEKEYLIPSNGSAEEIKKAFPNAEISSAGGSAGGSAGGS [r4_187_TrMRF] | 0.689 ± 0.15 kcal/mol
SMTPEVSVITLRPVEVKKVGEVPVVTLEVTEVENAPEELLEKVKAGAKLTIEVPKDEPIEPDEEIEVVLPSA [r9_557_JUSTAS] | 0.146 ± 0.1 kcal/mol
SAGGSAGGSAGGAAEVLEALRAARGQPVVVLVKDPAGNEREVTVPGDTARFPGWTVVELLSAGGSAGGSAGG [r7_998_JUSTAS] | 0.739 ± 0.11 kcal/mol
SAGGMNSMRLTVEFPSPEQREEKLRQIVHKHGFTIKPKEVEPNPNGRMTHTIEINMPPKVRDAFKDLSAGGS [r8_357_TrROS] | -0.152 ± 0.19 kcal/mol
SAGGSAGGSGSSVERSPSGEVVTTTPTAGGTLRTVHDPSGTRTLTDVASGKVLATYTPAVPVASAGGSAGGS [r12_235_JUSTAS] | -0.638 ± 0.31 kcal/mol
SAGGSAGGSADNPQVERTIHDPNGGFKVMINPNDNSIEIWPYKNDKPEPKTFDSPEALDDISAGGSAGGSAG [r3_426_TrROS] | 0.136 ± 0.17 kcal/mol
SAGMKTLTGPPEVLEELVEKALKENPNAKTVTIVDGDKSVTVPKDEEVEFLEPAPQPDGEPYVTIEILESAG [r5_130_JUSTAS] | 0.669 ± 0.048 kcal/mol
SAGGSAGGSAGRTIMIPPNQTAEEAVNHLKEELPPGNKNVTINYWDGDGEWEKFEIEVKKSAGGSAGGSAGG [r17_215_TrROS] | -0.616 ± 0.44 kcal/mol
SAGGSAGGSAKKELKIGNVEHNPGDGRYWANIQIKDGKPIVPVEFDDPQDPERFVKKAIKQLSAGGSAGGSA [r18_479_TrROS] | -0.706 ± 0.41 kcal/mol
SAGGSAGGSGGMRVIRTKLEETEFFEETGESRTFEGLVIVEKEIYLPPYPRYPVFRFDEEKEASAGGSAGGS [r12_140_JUSTAS] | -0.379 ± 0.41 kcal/mol
SAGGGVTLTVDVRSKSGGSPEKFTLTLPVAVDPAGSADLDAARAAVAAALPPEAEVLELSLLPPDVPASAGG [r13_504_JUSTAS] | 0.346 ± 0.17 kcal/mol
SAGGSMKVEYDESTGVTTITLPDGSTITFPAEDTGLTVEASLEDDTLTITVKDPNNPVPLETRTIPSSSAGG [r13_938_JUSTAS] | 0.935 ± 0.036 kcal/mol
SAGGSNKNSPEDQKRKQQPPQPKVRTIPGPLSEDQIKNLLDNGQPIIIEGPDGEWWVIKNNEIEPISAGGSA [r2_33_TrROS] | 0.255 ± 0.14 kcal/mol
SAGGSAGGSAGGKTLSKEEALKKAKELAEKGEKVKIEVKNKKTKKTETIEITKEELEKLSAGGSAGGSAGGS [r10_779_TrROS_Hall] | 0.47 ± 0.13 kcal/mol
SAGGGMSLTTTTLTFSIDEVDPEELYEELSKKGVTVYSGGKPSNPEEGMEALLKAHPNSSYTVLTRLSAGGS [r8_38_JUSTAS] | -0.483 ± 0.54 kcal/mol
SAMTPDELADELAKKFHQQNQENGYEIPDVDIKYDPEEDRVTVEFEMRNKNTGRPMRPTFQIDDPEDILSAG [r14_409_TrROS] | -0.247 ± 0.33 kcal/mol
SAGMKVVRTRTVWADDSDNPTPLAPEVELVRDAPPTFPLPVTVTTPDGRPYTGTLIALDPDREGLVLGGSAG [r5_735_TrMRF] | 0.254 ± 0.17 kcal/mol
SAGGSAGGSAGGSGPPLRTEERVEEVTLPNGERLLVETTTLTDPVTGETTVSRSIRLPLSAGGSAGGSAGGS [r4_445_JUSTAS] | 0.53 ± 0.1 kcal/mol

experiment: folding stability dG unfold (combined trypsin and chymotrypsin); higher = more stable
Method: as §1

Sequence | folding stability dG unfold
SAGGSAMKVEKEGDKVTIIVNAPESLNDKKVLTEKIKKAIEENKNKEVEIIAPPKYKPYAEETIKNSAGGSA [r15_89_JUSTAS] | -0.558 ± 0.39 kcal/mol
SAPPATLTVDSVEFHPETGTLTIPFSHPAGPTASVLFRNEDGEVLEIPGTVPTATIRAEPNMRLERVFLGSA [r9_113_TrMRF] | -0.0386 ± 0.081 kcal/mol
SAGGSAGGSAGGSEEKPIPIKVKIWKPNPGELVEEKEYLIPSNGSAEEIKKAFPNAEISSAGGSAGGSAGGS [r4_187_TrMRF] | 0.12 ± 0.3 kcal/mol
SMTPEVSVITLRPVEVKKVGEVPVVTLEVTEVENAPEELLEKVKAGAKLTIEVPKDEPIEPDEEIEVVLPSA [r9_557_JUSTAS] | -0.706 ± 0.27 kcal/mol
SAGGSAGGSAGGAAEVLEALRAARGQPVVVLVKDPAGNEREVTVPGDTARFPGWTVVELLSAGGSAGGSAGG [r7_998_JUSTAS] | 0.341 ± 0.17 kcal/mol
SAGGMNSMRLTVEFPSPEQREEKLRQIVHKHGFTIKPKEVEPNPNGRMTHTIEINMPPKVRDAFKDLSAGGS [r8_357_TrROS] | -0.659 ± 0.14 kcal/mol
SAGGSAGGSGSSVERSPSGEVVTTTPTAGGTLRTVHDPSGTRTLTDVASGKVLATYTPAVPVASAGGSAGGS [r12_235_JUSTAS] | < -1 kcal/mol
SAGGSAGGSADNPQVERTIHDPNGGFKVMINPNDNSIEIWPYKNDKPEPKTFDSPEALDDISAGGSAGGSAG [r3_426_TrROS] | -0.387 ± 0.29 kcal/mol
SAGMKTLTGPPEVLEELVEKALKENPNAKTVTIVDGDKSVTVPKDEEVEFLEPAPQPDGEPYVTIEILESAG [r5_130_JUSTAS] | 0.101 ± 0.13 kcal/mol
SAGGSAGGSAGRTIMIPPNQTAEEAVNHLKEELPPGNKNVTINYWDGDGEWEKFEIEVKKSAGGSAGGSAGG [r17_215_TrROS] | < -1 kcal/mol
SAGGSAGGSAKKELKIGNVEHNPGDGRYWANIQIKDGKPIVPVEFDDPQDPERFVKKAIKQLSAGGSAGGSA [r18_479_TrROS] | < -1 kcal/mol
SAGGSAGGSGGMRVIRTKLEETEFFEETGESRTFEGLVIVEKEIYLPPYPRYPVFRFDEEKEASAGGSAGGS [r12_140_JUSTAS] | -0.526 ± 0.42 kcal/mol
SAGGGVTLTVDVRSKSGGSPEKFTLTLPVAVDPAGSADLDAARAAVAAALPPEAEVLELSLLPPDVPASAGG [r13_504_JUSTAS] | < -1 kcal/mol
SAGGSMKVEYDESTGVTTITLPDGSTITFPAEDTGLTVEASLEDDTLTITVKDPNNPVPLETRTIPSSSAGG [r13_938_JUSTAS] | 0.393 ± 0.18 kcal/mol
SAGGSNKNSPEDQKRKQQPPQPKVRTIPGPLSEDQIKNLLDNGQPIIIEGPDGEWWVIKNNEIEPISAGGSA [r2_33_TrROS] | -0.0552 ± 0.24 kcal/mol
SAGGSAGGSAGGKTLSKEEALKKAKELAEKGEKVKIEVKNKKTKKTETIEITKEELEKLSAGGSAGGSAGGS [r10_779_TrROS_Hall] | 0.151 ± 0.44 kcal/mol
SAGGGMSLTTTTLTFSIDEVDPEELYEELSKKGVTVYSGGKPSNPEEGMEALLKAHPNSSYTVLTRLSAGGS [r8_38_JUSTAS] | < -1 kcal/mol
SAMTPDELADELAKKFHQQNQENGYEIPDVDIKYDPEEDRVTVEFEMRNKNTGRPMRPTFQIDDPEDILSAG [r14_409_TrROS] | < -1 kcal/mol
SAGMKVVRTRTVWADDSDNPTPLAPEVELVRDAPPTFPLPVTVTTPDGRPYTGTLIALDPDREGLVLGGSAG [r5_735_TrMRF] | -0.29 ± 0.19 kcal/mol
SAGGSAGGSAGGSGPPLRTEERVEEVTLPNGERLLVETTTLTDPVTGETTVSRSIRLPLSAGGSAGGSAGGS [r4_445_JUSTAS] | -0.38 ± 0.19 kcal/mol
